Measured values published in publication PMC11428563, “Systematic design and evaluation of aptamers for VEGF and PlGF biomarkers of Preeclampsia”.

Key:
Details in all cases: protein: commercial; tags: His; chain copies: 2
[1] = molecular target: T1, PlGF (Human PlGF / PGF (19-149) Protein, His Tag, Acrobiosystems PGF-H52H5) (human, UniProt P49763-2 19-149); experiment: BLI; kon 3.169e3 1/Ms; koff 2.150e-1 1/s; BLI (Octet R4, anti-penta-His HIS1K sensors): protein loaded in phosphate buffer pH 7.4 (PlGF 2.5 ug/mL, VEGF 10 ug/mL); aptamers 0-20 uM in 1X Sartorius Kinetics Buffer; 1:1 global fit, triplicate; temperature not stated
T1 sequence: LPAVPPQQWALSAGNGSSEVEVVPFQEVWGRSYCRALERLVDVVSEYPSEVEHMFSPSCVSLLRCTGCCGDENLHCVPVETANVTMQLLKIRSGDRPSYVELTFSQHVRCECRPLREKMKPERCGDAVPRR

[2] = molecular target: T1, PlGF (Human PlGF / PGF (19-149) …); experiment: BLI; kon 1.772e4 1/Ms; koff 2.049e-1 1/s; BLI (Octet R4, anti-penta-His HIS1K sensors): protein loaded in phosphate buffer pH 7.4 (PlGF 2.5 ug/mL, VEGF 10 ug/mL); aptamers 0-20 uM in 1X Sartorius Kinetics Buffer; 1:1 global fit, triplicate; temperature not stated
[3] = molecular target: T1, PlGF (Human PlGF / PGF (19-149) …); experiment: BLI; kon 2.746e3 1/Ms; koff 5.548e-7 1/s; BLI (Octet R4, anti-penta-His HIS1K sensors): protein loaded in phosphate buffer pH 7.4 (PlGF 2.5 ug/mL, VEGF 10 ug/mL); aptamers 0-20 uM in 1X Sartorius Kinetics Buffer; 1:1 global fit, triplicate; temperature not stated

CGAAGAGACGCAGAGAAGC (ssRNA) [PlGF-Apt4]
Kd [1]: 49.7 µM

ACAGGCACA (ssRNA) [PlGF-Apt2]
Kd [2]: 17.7 µM

AGAGAACGCAAGAGA (ssRNA) [PlGF-Apt3]
Kd [3]: 0.298 nM
